Reference: the Human Domainome abundance scans (Beltran et al. 2025)
± gives the uncertainty stated by the source.

B1: Zinc finger homeobox protein 3, residues 2643 to 2698; numbered along this chain, Q15911 (parent)
chain: RLRTTITPEQLEILYQKYLLDSNPTRKMLDHIAHEVGLKKRVVQVWFQNTRARERK

Variants of: B1
Experiment: abundance fitness (aPCA) (normalised: wild type 0, dead -1); higher = more abundant; growth selection in yeast, the domain comes from the species named
Details: Homo sapiens

Variant | abundance fitness
RLRTTITPEQLEILYQKYLLDSNPTRKMLDHIAHEVGLKARVVQVWFQNTRARERK | 0.144 ± 0.08
RLRTTITPEQLEILYQKYLLDSNPTRKMLDHIAHEVGLRKRVVQVWFQNTRARERK | -0.012 ± 0.074
RLRTTITPEQLEILYQKYLLDSNPTRKMLDHIAHEVGLEKRVVQVWFQNTRARERK | 0.518 ± 0.13
RLRTTITPEQLEILYQKYLLDSNPTRKMLDHIAHEVGLQKRVVQVWFQNTRARERK | 0.108 ± 0.15
RLRTTITPEQLEILYQKYLLDSNPTRKMLDHIAHEVGLNKRVVQVWFQNTRARERK | -0.153 ± 0.14
RLRTTITPEQLEILYQKYLLDSNPTRKMLDHIAHEVGLMKRVVQVWFQNTRARERK | 0.13 ± 0.11
RLRTTITPEQLEILYQKYLLDSNPTRKMLDHIAHEVGLTKRVVQVWFQNTRARERK | 0.373 ± 0.11
RLRTTITPEQLEILYQKYLLDSNPTRKMLDHIAHEVGLCKRVVQVWFQNTRARERK | 0.184 ± 0.12
RLRTTITPEQLEILYQKYLLDSNPTRKMLDHIAHEVGLAKRVVQVWFQNTRARERK | 0.236 ± 0.087
RLRTTITPEQLEILYQKYLLDSNPTRKMLDHIAHEVGLVKRVVQVWFQNTRARERK | -0.01 ± 0.092
RLRTTITPEQLEILYQKYLLDSNPTRKMLDHIAHEVGLFKRVVQVWFQNTRARERK | -0.929 ± 0.28
RLRTTITPEQLEILYQKYLLDSNPTRKMLDHIAHEVGLPKRVVQVWFQNTRARERK | 0.224 ± 0.12
RLRTTITPEQLEILYQKYLLDSNPTRKMLDHIAHEVGLLKRVVQVWFQNTRARERK | -0.324 ± 0.1
RLRTTITPEQLEILYQKYLLDSNPTRKMLDHIAHEVGLWKRVVQVWFQNTRARERK | -0.77 ± 0.11
RLRTTITPEQLEILYQKYLLDSNPTRKMLDHIAHEVGLGKRVVQVWFQNTRARERK | 0.178 ± 0.072
RLRTTITPEQLEILYQKYLLDSNPTRKMLDHIAHEVGLDKRVVQVWFQNTRARERK | 0.189 ± 0.13
RLRTTITPEQLEILYQKYLLDSNPTRKMLDHIAHEVGLYKRVVQVWFQNTRARERK | -0.114 ± 0.22
RLRTTITPEQLEILYQKYLLDSNPTRKMLDHIAHEVGLHKRVVQVWFQNTRARERK | -0.392 ± 0.18
RLRTTITPEQLEILYQKYLLDSNPTRKMLDHIAHEFGLKKRVVQVWFQNTRARERK | -0.568 ± 0.15
RLRTTITPEQLEILYQKYLLDSNPTRKMLDHIAHETGLKKRVVQVWFQNTRARERK | 0.053 ± 0.12
RLRTTITPEQLEILYQKYLLDSNPTRKMLDHIAHEWGLKKRVVQVWFQNTRARERK | -0.495 ± 0.14
RLRTTITPEQLEILYQKYLLDSNPTRKMLDHIAHEAGLKKRVVQVWFQNTRARERK | -0.114 ± 0.09
RLRTTITPEQLEILYQKYLLDSNPTRKMLDHIAHERGLKKRVVQVWFQNTRARERK | -0.82 ± 0.11
RLRTTITPEQLEILYQKYLLDSNPTRKMLDHIAHEMGLKKRVVQVWFQNTRARERK | -0.427 ± 0.18

Variant | abundance fitness
RLRTTITPEQLEILYQKYLLDSNPTRKMLDHIAHESGLKKRVVQVWFQNTRARERK | -0.134 ± 0.094
RLRTTITPEQLEILYQKYLLDSNPTRKMLDHIAHEDGLKKRVVQVWFQNTRARERK | -0.853 ± 0.2
RLRTTITPEQLEILYQKYLLDSNPTRKMLDHIAHEHGLKKRVVQVWFQNTRARERK | -0.964 ± 0.2
RLRTTITPEQLEILYQKYLLDSNPTRKMLDHIAHEYGLKKRVVQVWFQNTRARERK | -0.896 ± 0.19
RLRTTITPEQLEILYQKYLLDSNPTRKMLDHIAHEKGLKKRVVQVWFQNTRARERK | -0.985 ± 0.35
RLRTTITPEQLEILYQKYLLDSNPTRKMLDHIAHEGGLKKRVVQVWFQNTRARERK | -0.732 ± 0.1
RLRTTITPEQLEILYQKYLLDSNPTRKMLDHIAHEPGLKKRVVQVWFQNTRARERK | -1 ± 0.19
RLRTTITPEQLEILYQKYLLDSNPTRKMLDHIAHEEGLKKRVVQVWFQNTRARERK | -1.11 ± 0.26
RLRTTITPEQLEILYQKYLLDSNPTRKMLDHIAHEIGLKKRVVQVWFQNTRARERK | 0.191 ± 0.12
RLRTTITPEQLEILYQKYLLDSNPTRKMLDHIAHENGLKKRVVQVWFQNTRARERK | -0.761 ± 0.25
RLRTTITPEQLEILYQKYLLDSNPTRKMLDHIAHELGLKKRVVQVWFQNTRARERK | -0.145 ± 0.094
RLRTTITPEQLEILYQKYLLDSNPTRKMLDHIAHEVHLKKRVVQVWFQNTRARERK | -0.404 ± 0.16
RLRTTITPEQLEILYQKYLLDSNPTRKMLDHIAHEVQLKKRVVQVWFQNTRARERK | -0.147 ± 0.1
RLRTTITPEQLEILYQKYLLDSNPTRKMLDHIAHEVRLKKRVVQVWFQNTRARERK | -0.27 ± 0.071
RLRTTITPEQLEILYQKYLLDSNPTRKMLDHIAHEVCLKKRVVQVWFQNTRARERK | -0.297 ± 0.087
RLRTTITPEQLEILYQKYLLDSNPTRKMLDHIAHEVMLKKRVVQVWFQNTRARERK | -0.53 ± 0.12
RLRTTITPEQLEILYQKYLLDSNPTRKMLDHIAHEVKLKKRVVQVWFQNTRARERK | -0.007 ± 0.12
RLRTTITPEQLEILYQKYLLDSNPTRKMLDHIAHEVDLKKRVVQVWFQNTRARERK | -0.384 ± 0.1
RLRTTITPEQLEILYQKYLLDSNPTRKMLDHIAHEVFLKKRVVQVWFQNTRARERK | -0.55 ± 0.15
RLRTTITPEQLEILYQKYLLDSNPTRKMLDHIAHEVVLKKRVVQVWFQNTRARERK | -0.812 ± 0.09
RLRTTITPEQLEILYQKYLLDSNPTRKMLDHIAHEVPLKKRVVQVWFQNTRARERK | -0.637 ± 0.13
RLRTTITPEQLEILYQKYLLDSNPTRKMLDHIAHEVNLKKRVVQVWFQNTRARERK | -0.306 ± 0.13
RLRTTITPEQLEILYQKYLLDSNPTRKMLDHIAHEVTLKKRVVQVWFQNTRARERK | -0.825 ± 0.13
